Here are results for ten molecules from patent publication US11814435B2, “Therapeutic antibodies and their uses” (PFIZER INC., priority 2015, dated 2023).

One experiment has as its target CD3 (Homo sapiens, UniProt P07766). Nature of the experiment: Biacore kinetics of anti-CD3 hIgG2dA bispecifics at 37° C. The class given is binding.
In another experiment the target is hCD3 (human CD3) (Homo sapiens, UniProt P07766). Nature of the experiment: Kinetics and affinity of hCD3/human IgG interactions by SPR (Bio-Rad Proteon XPR36). The class given is binding. The note with it: 37° C. Here is the method: All experiments were performed on a Bio-Rad Proteon XPR36 surface Plasmon resonance biosensor (Bio-Rad, Hercules, Calif.). An array of anti-CD3 antibodies was prepared using an amine-coupling method on a Bio-Rad GLC Sensor Chip similar to that described in Abdiche, et al., Anal. Biochem. 411, 139-151 (2011). The analysis temperature for the immobilization was 25° C. and the running buffer was HBS-T+(10 mM HEPES, 150 mM NaCl, 0.05% Tween-20, pH 7.4). Channels were activated in the analyte (horizontal) direction by injecting a mixture of 1 mM ECD and 0.25 mM NHS for 3 minutes at a flow rate of 30 μL/min. IgGs were immobilized on the activated spots by injecting them in the ligand (vertical) direction at 20 μg/mL in 10 mM Acetate pH 4.5 buffer for 1.5 minutes at […]. The activated surfaces were blocked by injecting 1M ethanolamine, pH 8.5 in the analyte direction for 3 minutes at 30 μL/min.
Chain of hCD3 (human CD3) (P07766 23-126 limits assumed): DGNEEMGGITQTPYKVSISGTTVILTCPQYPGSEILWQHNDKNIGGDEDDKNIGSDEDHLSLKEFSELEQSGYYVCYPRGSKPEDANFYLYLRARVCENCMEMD
Chain of hCD3 (human CD3) (P04234 22-105 partner limits assumed): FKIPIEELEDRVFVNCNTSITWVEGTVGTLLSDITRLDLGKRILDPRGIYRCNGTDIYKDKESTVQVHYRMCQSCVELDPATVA
The analysis temperature for the hCD3 binding analysis was 37° C. or 25° C. in a running buffer of HBS-T+, supplemented with 1 mg/mL BSA. A kinetic titration method was employed for the interaction analysis as described in Abdiche, et al. The hCD3 (human CD3) analyte was injected in the analyte direction using a series of injections from low to high concentration. The concentrations used were 0.08 nM, 0.4 nM, 2 nM, 10 nM and 50 nM (a 5-membered series, with a 5-fold dilution factor and top concentration of 50 nM). The association time for a given analyte dilution was two minutes. Immediately after the 50 nM hCD3 injection, dissociation was monitored for 2 hours. Prior to the hCD3 analyte injections, buffer was injected 5 times using the same association and dissociation times at the hCD3 analyte cycles to prepare a buffer blank sensorgram for double-referencing purposes (double referencing as described in Myszka, J. Mol. Recognit. 12, 279-284 (1999).
The sensorgrams were double-referenced and fit to a 1:1 Langmuir with mass transport kinetic titration model in BIAevaluation Software version 4.1.1 (GE Lifesciences, Piscataway, N.J.).
(In general: SPR reads the build-up and loss of mass on a sensor chip optically.)

Chain of CD3 (P07766 23-126 limits assumed): as the sequence (P07766 23-126 limits assumed) above
Chain of CD3 (P04234 22-105 partner limits assumed): as the sequence (P04234 22-105 partner limits assumed) above

B1: h25A8-C8_Ep (antibody, V domains shown)
VH: EVQLVESGGGLVKPGGSLRLSCAASGFTFNTYAMNWVRQAPGKGLEWVGRIRSKINNYATYYAESVKGRFTISRDDSKNTLYLQMNSLKTEDTAVYYCVRHETLRSGISWFASWGQGTLVTVSS
VL: QAVVTQEPSLTVSPGGTVTLTCRSSTGAVTTSNYANWVQQKPGQAPRGLIGGTNTRAPGTPARFSGSLLGGKAALTLSGAQPEDEAEYYCVLWYNNHWVFGGGTKLTVL
modifications: left off: another chain or arm of the molecule; a dimerising Fc or GST; small tags and cut ends
Regarding B1, in the experiment with CD3, binding was characterised by a dissociation constant (Kd) of 25.1 nM, the ka was 1.2e+06 M⁻¹ s⁻¹ and the kd was found to be 0.0301 s⁻¹.

B2: h25A8-B8_Ep (antibody, V domains shown)
VH: EVQLVESGGGLVKPGGSLRLSCAASGFTFSTYAMNWVRQAPGKGLEWVGRIRSKINNYATYYAESVKGRFTISRDDSKNTLYLQMNSLKTEDTAVYYCVRHETLRSGISWFASWGQGTLVTVSS
VL: QAVVTQEPSLTVSPGGTVTLTCRSSTGAVTTSNYANWVQQKPGQAPRGLIGGTNTRAPGTPARFSGSLLGGKAALTLSGAQPEDEAEYYCVLWYNNHWVFGGGTKLTVL
modifications: left off: another chain or arm of the molecule; a dimerising Fc or GST; small tags and cut ends
Consider B2, for which, in the experiment with CD3, binding was put at a Kd of 18.7 nM, the ka worked out at 1.19e+06 M⁻¹ s⁻¹ and the kd came out at 0.0222 s⁻¹.

B3: h25A8-B5_Ep (antibody, V domains shown)
VH: EVQLVESGGGLVKPGGSLRLSCAASGFTFSTYAMNWVRQAPGKGLEWVGRIRSKINNYATYYAESVKGRFTISRDDSKNTLYLQMNSLKTEDTAVYYCVRHETLRSGISWFASWGQGTLVTVSS
VL: QAVVTQEPSLTVSPGGTVTLTCRSSTGAVTTSNYANWVQQKPGQAPRGLIGGTNTRAPGTPARFSGSLLGGKAALTLSGAQPEDEAEYYCVLWYNNYWVFGGGTKLTVL
modifications: left off: another chain or arm of the molecule; a dimerising Fc or GST; small tags and cut ends
In the experiment with CD3, B3 had a Kd of 45 nM, a ka of 1.29e+06 M⁻¹ s⁻¹ and a kd of 0.0581 s⁻¹.

B4: h25A8-B13_Ep: anti-EpCam/CD3 bispecific, human IgG2dA, anti-CD3 arm h25A8-B13 (antibody, V domains shown)
VH: EVQLVESGGGLVKPGGSLRLSCAASGFTFSTYAMNWVRQAPGKGLEWVGRIRSKINNYATYYAESVKGRFTISRDDSKNTLYLQMNSLKTEDTAVYYCVRHETLRSGISWFASWGQGTLVTVSS
VL: QAVVTQEPSLTVSPGGTVTLTCRTSTGAVTTSNYANWVQQKPGQAPRGLIGGTNTRAPGTPARFSGSLLGGKAALTLSGAQPEDEAEYYCVLWYNNHWVFGGGTKLTVL
modifications: left off: another chain or arm of the molecule; a dimerising Fc or GST; small tags and cut ends
notes: anti-EpCam/CD3 bispecific, human IgG2dA, anti-CD3 arm h25A8-B13
Regarding B4, in the experiment with CD3, binding was put at a Kd of 18.3 nM, the ka amounted to 1.2e+06 M⁻¹ s⁻¹ and the kd is 0.0219 s⁻¹.

B5: h25A8-B12_Ep: anti-EpCam/CD3 bispecific, human IgG2dA, anti-CD3 arm h25A8-B12 (antibody, V domains shown)
VH: EVQLVESGGGLVKPGGSLRLSCAASGFTFSTYAMNWVRQAPGKGLEWVGRIRSKINNYATYYAESVKGRFTISRDDSKNTLYLQMNSLKTEDTAVYYCVRHETLRSGISWFASWGQGTLVTVSS
VL: QAVVTQEPSLTVSPGGTVTLTCRASTGAVTTSNYANWVQQKPGQAPRGLIGGTNTRAPGTPARFSGSLLGGKAALTLSGAQPEDEAEYYCVLWYNNHWVFGGGTKLTVL
modifications: left off: another chain or arm of the molecule; a dimerising Fc or GST; small tags and cut ends
notes: anti-EpCam/CD3 bispecific, human IgG2dA, anti-CD3 arm h25A8-B12
In the experiment with CD3, B5 had a dissociation constant Kd of 21 nM, a ka of 1.15e+06 M⁻¹ s⁻¹ and a kd of 0.0241 s⁻¹.

B6: h2B4-VH-wt VL_TK: anti-CD3 antibody (antibody, V domains shown)
VH: EVQLVESGGGLVQPGGSLRLSCAASGFTFSDYYMTWVRQAPGKGLEWVAFIRNRARGYTSDHNASVKGRFTISRDNAKNSLYLQMNSLRAEDTAVYYCARDRPSYYVLDYWGQGTTVTVSS
VL: DIVMTQSPDSLAVSLGERATINCKSSQSLFNVRSRKNYLAWYQQKPGQPPKLLISWASTRESGVPDRFSGSGSGTDFTLTISSLQAEDVAVYYCKQSYDLFTFGSGTKLEIK
In the case of B6, in the experiment with hCD3 (human CD3), the “ka huCD3ed @37° C.” value came to 380000 M⁻¹ s⁻¹ and the “kd huCD3ed @37° C.” value was determined as 0.014 s⁻¹.

B7: h2B4-yaesTK_Ep: anti-EpCam/CD3 bispecific, human IgG2dA, anti-CD3 arm h2B4-yaesTK (h2B4-VH-yaes VL_TK) (antibody, V domains shown)
VH: EVQLVESGGGLVQPGGSLRLSCAASGFTFSDYYMTWVRQAPGKGLEWVAFIRNRARGYTSDYAESVKGRFTISRDNAKNSLYLQMNSLRAEDTAVYYCARDRPSYYVLDYWGQGTTVTVSS
VL: DIVMTQSPDSLAVSLGERATINCKSSQSLFNVRSRKNYLAWYQQKPGQPPKLLISWASTRESGVPDRFSGSGSGTDFTLTISSLQAEDVAVYYCKQSYDLFTFGSGTKLEIK
modifications: left off: another chain or arm of the molecule; a dimerising Fc or GST; small tags and cut ends
For the molecule B7, in the experiment with CD3, the Kd worked out at 54.4 nM, the ka worked out at 474000 M⁻¹ s⁻¹ and the kd was 0.0258 s⁻¹.

B8: h2B4-VH-hnps VL_TK: anti-CD3 antibody (antibody, V domains shown)
VH: EVQLVESGGGLVQPGGSLRLSCAASGFTFSDYYMTWVRQAPGKGLEWVAFIRNRARGYTSDHNPSVKGRFTISRDNAKNSLYLQMNSLRAEDTAVYYCARDRPSYYVLDYWGQGTTVTVSS
VL: DIVMTQSPDSLAVSLGERATINCKSSQSLFNVRSRKNYLAWYQQKPGQPPKLLISWASTRESGVPDRFSGSGSGTDFTLTISSLQAEDVAVYYCKQSYDLFTFGSGTKLEIK
Turning to B8, in the experiment with hCD3 (human CD3), the “ka huCD3ed @37° C.” value is 390000 M⁻¹ s⁻¹ and the “kd huCD3ed @37° C.” value turned out to be 0.016 s⁻¹.

B9: h2B4-VH-yaes VL_TK: anti-CD3 antibody (antibody, V domains shown)
VH: EVQLVESGGGLVQPGGSLRLSCAASGFTFSDYYMTWVRQAPGKGLEWVAFIRNRARGYTSDYAESVKGRFTISRDNAKNSLYLQMNSLRAEDTAVYYCARDRPSYYVLDYWGQGTTVTVSS
VL: DIVMTQSPDSLAVSLGERATINCKSSQSLFNVRSRKNYLAWYQQKPGQPPKLLISWASTRESGVPDRFSGSGSGTDFTLTISSLQAEDVAVYYCKQSYDLFTFGSGTKLEIK
Consider B9, for which, in the experiment with hCD3 (human CD3), the “ka huCD3ed @37° C.” value came out at 230000 M⁻¹ s⁻¹ and the “kd huCD3ed @37° C.” value is 0.023 s⁻¹.

B10: h2B4-VH-yads VL_TK: anti-CD3 antibody (antibody, V domains shown)
VH: EVQLVESGGGLVQPGGSLRLSCAASGFTFSDYYMTWVRQAPGKGLEWVAFIRNRARGYTSDYADSVKGRFTISRDNAKNSLYLQMNSLRAEDTAVYYCARDRPSYYVLDYWGQGTTVTVSS
VL: DIVMTQSPDSLAVSLGERATINCKSSQSLFNVRSRKNYLAWYQQKPGQPPKLLISWASTRESGVPDRFSGSGSGTDFTLTISSLQAEDVAVYYCKQSYDLFTFGSGTKLEIK
Turning to B10, in the experiment with hCD3 (human CD3), the “ka huCD3ed @37° C.” value worked out at 240000 M⁻¹ s⁻¹ and the “kd huCD3ed @37° C.” value turned out to be 0.021 s⁻¹.

One may read the Kd as the equilibrium constant for the complex coming apart. Lower therefore signals higher affinity.
